Usually Kd stands for the free concentration of one partner at which half of the binding sites on the other are occupied at equilibrium, for simple one-to-one binding.

Test [1] concerns the target soluble single-chain FcRn (human) (UniProt P55899). The test is described as follows: SPR (BIACORE X), scFcRn amine-coupled to CM5 chip, pH 6.0, two-state reaction model, mean of three runs. A general note: Surface plasmon resonance follows binding to a sensor surface in real time, without labels.
Test [2] shares this target. The test is described as follows: SPR (BIACORE X), scFcRn amine-coupled to CM5 chip, antibody as analyte 25-400 nM, pH 6.0, two-state reaction model, Run 1.
Test [3] has the same target. The test is described as follows: SPR (BIACORE X), scFcRn amine-coupled to CM5 chip, antibody as analyte 25-400 nM, pH 6.0, two-state reaction model, Run 2.
Test [4] has the same target. In words: SPR (BIACORE X), scFcRn amine-coupled to CM5 chip, antibody as analyte 25-400 nM, pH 6.0, two-state reaction model, Run 3.

Chain of soluble single-chain FcRn (human) (P55899 24-297 limits assumed, chain 1 of 2): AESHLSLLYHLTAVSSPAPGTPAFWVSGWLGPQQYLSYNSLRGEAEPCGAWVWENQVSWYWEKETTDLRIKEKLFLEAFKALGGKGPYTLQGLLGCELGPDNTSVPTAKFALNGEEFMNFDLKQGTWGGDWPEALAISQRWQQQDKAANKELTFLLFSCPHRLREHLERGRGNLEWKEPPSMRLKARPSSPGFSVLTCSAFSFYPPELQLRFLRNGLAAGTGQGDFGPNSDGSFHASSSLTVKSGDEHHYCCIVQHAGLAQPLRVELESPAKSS
Chain of soluble single-chain FcRn (human) (P61769 21-119 limits assumed, chain 2 of 2, further chain): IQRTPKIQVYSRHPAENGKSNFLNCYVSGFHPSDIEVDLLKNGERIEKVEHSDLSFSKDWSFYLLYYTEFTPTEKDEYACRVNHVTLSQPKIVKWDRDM

In the case of epratuzumab (antibody), the Kd in test [1] is 16.3 nM; in test [2], 15 nM; in test [3], 17.9 nM; in test [4] it was 15.8 nM.
